Assay results from patent US20260125477A1 (BEIJING MABWORKS BIOTECH, published 2026).

Experiments:
[1] = molecular target: T1, mouse B7-H3/CD276 protein, with His tag (mouse, UniProt Q8VE98 29-244, limits assumed); assay: SPR (Biacore T200), antibody captured on Protein A chip, His-tagged antigen injected
T1 construct: Bought protein
T1 sequence (looked up): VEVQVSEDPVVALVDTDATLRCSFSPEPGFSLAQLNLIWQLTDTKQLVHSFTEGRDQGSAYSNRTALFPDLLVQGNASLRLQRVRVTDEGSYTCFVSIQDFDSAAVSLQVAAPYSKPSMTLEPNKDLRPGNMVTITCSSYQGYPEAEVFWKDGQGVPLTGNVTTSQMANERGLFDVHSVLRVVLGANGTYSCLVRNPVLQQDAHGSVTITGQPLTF
Protocol: The fully human anti-human B7-H3 antibodies were tested for their binding affinity to human B7-H3 (4Ig), human B7-H3 (2Ig), monkey B7-H3 (monkey B7-H3/CD276 protein, with His tag, Cat #: B73-C52Ha, ACROBiosystems) and mouse B7-H3 protein (mouse B7-H3/CD276 protein, with His tag, Cat #: B73-M52H4, ACROBiosystems) by surface plasmon resonance (SPR) using Biacore T200 biosensor (Biacore, US) provided with a pre-fixed Protein A sensor chip. Briefly, the anti-human B7-H3 antibodies (1 μg/mL) were injected to the Biacore T200 biosensor at 10 μL/min for 20 sec, to achieve the desired protein density (100±30 RU).
The data as generated was analyzed using Biacore Insight V2.0.1 5.12933 with the one-to-one Langmuir binding model. The association rate (kₒₙ) and dissociation rate (koff) were obtained at the same time. The affinity was calculated as the quotient of the two kinetic rate constants (KD=koff/kₒₙ).

[2] = molecular target: T2, recombinant human CD80 protein (human B7-1/CD80 protein, with His tag) (human, UniProt P33681 35-242); assay: SPR (Biacore T200), 6B5 captured on Protein A chip; response against concentration
T2 construct: Bought protein
T2 sequence (looked up): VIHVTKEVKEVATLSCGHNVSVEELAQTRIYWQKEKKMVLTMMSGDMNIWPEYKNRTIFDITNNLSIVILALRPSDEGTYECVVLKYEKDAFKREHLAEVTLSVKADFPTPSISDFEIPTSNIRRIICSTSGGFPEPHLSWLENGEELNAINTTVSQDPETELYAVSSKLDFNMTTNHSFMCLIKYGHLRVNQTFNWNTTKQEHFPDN
Protocol: (§1) The anti-human B7-H3 antibodies were tested for their binding capability to B7 family proteins by SPR using Biacore T200 biosensor (Biacore, US) provided with a pre-fixed Protein A sensor chip.
(§2) The dissociation was monitored for 600 sec. The data was analyzed using Biacore 8k evaluation software version 3.0, to obtain the binding responses, and the protein concentration-binding response curves were plotted, to determine the cross-reaction of the anti-human B7-H3 antibodies to the B7 family proteins.

[3] = molecular target: T3, human PD-L1/B7-H1 protein, with His tag (human, UniProt Q9NZQ7 19-238); assay: as above
T3 construct: Bought protein
Protocol: as §1, §2

[4] = molecular target: T4, human B7-H2/ICOSLG protein, with His tag (human, UniProt O75144 19-258, limits assumed); assay: as above
T4 construct: Bought protein
T4 sequence (looked up): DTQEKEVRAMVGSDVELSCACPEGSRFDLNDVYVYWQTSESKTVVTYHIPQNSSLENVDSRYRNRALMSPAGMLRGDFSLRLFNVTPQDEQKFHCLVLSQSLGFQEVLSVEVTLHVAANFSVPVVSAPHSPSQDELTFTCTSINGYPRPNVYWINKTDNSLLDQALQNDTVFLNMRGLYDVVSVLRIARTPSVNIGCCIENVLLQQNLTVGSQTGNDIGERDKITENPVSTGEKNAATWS
Protocol: as §1, §2

[5] = molecular target: T5, human B7-H4 protein, with His tag (MALS verified) (human, UniProt Q7Z7D3 29-258, limits assumed); assay: as above
T5 construct: Bought protein
T5 sequence (looked up): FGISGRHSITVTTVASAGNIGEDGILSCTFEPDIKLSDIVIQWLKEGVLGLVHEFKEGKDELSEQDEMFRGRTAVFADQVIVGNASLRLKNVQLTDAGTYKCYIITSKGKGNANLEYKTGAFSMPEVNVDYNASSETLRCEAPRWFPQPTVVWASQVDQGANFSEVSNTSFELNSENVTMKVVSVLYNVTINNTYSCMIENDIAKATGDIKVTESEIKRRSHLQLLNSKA
Protocol: as §1, §2

T3 sequence (Q9NZQ7 19-238 limits assumed): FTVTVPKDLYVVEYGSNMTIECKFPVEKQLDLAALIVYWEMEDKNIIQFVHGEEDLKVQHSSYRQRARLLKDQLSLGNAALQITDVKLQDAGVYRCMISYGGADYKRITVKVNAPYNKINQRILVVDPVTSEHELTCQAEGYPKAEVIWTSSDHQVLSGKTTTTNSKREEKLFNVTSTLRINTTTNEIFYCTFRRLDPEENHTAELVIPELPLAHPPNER

Kd [1]: 274 nM
koff [1]: 0.0159 s⁻¹
kon [1]: 58300 M⁻¹ s⁻¹
binding result [2]: no binding (tested: 200 nM)
binding result [3]: no binding (tested: 200 nM)
binding result [4]: no binding (tested: 200 nM)
binding result [5]: no binding (tested: 200 nM)
B1: 6B5 (antibody, human IgG1, kappa, V domains shown)
VH: QVQLVESGPGLVKPSQTLSLTCTVSDGSISSGGYYWSWIRQHPGKGLEWIGYIYYSGGTYYSPSLKSRVTISVDTSKNQFSLKLTSVTAADTAVYYCARRAGYSSSFDSWGQGILVTVSS
VL: EIVLTQSPLSLPVTPGEPASISCRSSQSLLYSNGYTYLDWYLQKPGQSPQFLIYLGFNRASGVPDRFSGSGSGTDFTLKISRVEAEDVGVYYCMQGLQTPYTFGQGTKLEIKR
notes: also called 6B5-WT; Ab6B5
